Test results: patent US20190263934A1

Tests used:
rFcRn (rat) [1] = target: rFcRn (rat) (UniProt P13599); experiment: Biacore SPR, pH 6.0, bivalent fit
Target sequence in this assay (P13599 23-298, form in doubt, chain 1 of 2): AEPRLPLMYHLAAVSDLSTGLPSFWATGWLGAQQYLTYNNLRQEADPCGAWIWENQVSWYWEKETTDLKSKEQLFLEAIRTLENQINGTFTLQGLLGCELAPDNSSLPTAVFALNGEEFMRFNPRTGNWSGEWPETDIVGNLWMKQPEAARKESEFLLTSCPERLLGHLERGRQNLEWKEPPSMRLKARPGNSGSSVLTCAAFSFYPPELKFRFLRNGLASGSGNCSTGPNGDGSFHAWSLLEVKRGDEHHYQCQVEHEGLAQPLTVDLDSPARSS
Target sequence in this assay (P07151 21-119, form in doubt, chain 2 of 2, further chain): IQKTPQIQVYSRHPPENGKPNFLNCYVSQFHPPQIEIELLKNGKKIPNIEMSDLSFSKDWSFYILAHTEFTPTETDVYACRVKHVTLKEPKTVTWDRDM

[2] = target: biotinylated hFcRn (human) (UniProt P55899); experiment: Biacore SPR, pH 6.0, bivalent fit
Target sequence in this assay (P55899 24-297, form in doubt, chain 1 of 2): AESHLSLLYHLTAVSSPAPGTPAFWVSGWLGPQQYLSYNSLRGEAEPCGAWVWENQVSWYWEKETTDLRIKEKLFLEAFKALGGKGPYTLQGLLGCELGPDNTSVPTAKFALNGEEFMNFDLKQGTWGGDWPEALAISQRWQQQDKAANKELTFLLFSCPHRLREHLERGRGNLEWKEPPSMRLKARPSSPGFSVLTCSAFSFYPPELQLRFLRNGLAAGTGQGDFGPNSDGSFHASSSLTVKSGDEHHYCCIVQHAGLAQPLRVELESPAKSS
Target sequence in this assay (P61769 21-119, form in doubt, chain 2 of 2, further chain): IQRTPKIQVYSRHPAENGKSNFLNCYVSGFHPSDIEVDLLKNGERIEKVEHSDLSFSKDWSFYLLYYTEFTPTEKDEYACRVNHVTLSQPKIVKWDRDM

[3] = target: Human CD16a (FcγRIIIa) V158 with C-terminal HPC4 tag (human) (UniProt P08637); experiment: Biacore SPR, captured HPC4-tagged FcγRIIIa-V158, steady-state fit
rFcRn (rat) [4] = target: rFcRn (rat) (UniProt P13599); experiment: Biacore SPR, pH 7.4, single antibody concentration, steady state
Target sequence in this assay (P13599 23-298, form in doubt, chain 1 of 2): as the sequence (P13599 23-298, form in doubt, chain 1 of 2) above
Target sequence in this assay (P07151 21-119, form in doubt, chain 2 of 2, further chain): as the sequence (P07151 21-119, form in doubt, chain 2 of 2, further chain) above

[5] = target: biotinylated hFcRn (human) (UniProt P55899); experiment: as above
Target sequence in this assay (P55899 24-297, form in doubt, chain 1 of 2): as the sequence (P55899 24-297, form in doubt, chain 1 of 2) above
Target sequence in this assay (P61769 21-119, form in doubt, chain 2 of 2, further chain): as the sequence (P61769 21-119, form in doubt, chain 2 of 2, further chain) above

rFcRn (rat) [6] = target: rFcRn (rat) (UniProt P13599); experiment: SPR Biacore, pH 7.4, 1000 nM antibody
Target sequence in this assay (P13599 23-298 limits assumed, form in doubt, chain 1 of 2): as the sequence (P13599 23-298, form in doubt, chain 1 of 2) above
Target sequence in this assay (P07151 21-119 limits assumed, form in doubt, chain 2 of 2, further chain): as the sequence (P07151 21-119, form in doubt, chain 2 of 2, further chain) above

[7] = target: biotinylated hFcRn (human) (UniProt P55899); experiment: SPR Biacore, pH 7.4, 1000 nM antibody
Target sequence in this assay (P55899 24-297 limits assumed, form in doubt, chain 1 of 2): as the sequence (P55899 24-297, form in doubt, chain 1 of 2) above
Target sequence in this assay (P61769 21-119 limits assumed, form in doubt, chain 2 of 2, further chain): as the sequence (P61769 21-119, form in doubt, chain 2 of 2, further chain) above

rFcRn (rat) [8] = target: rFcRn (rat) (UniProt P13599); experiment: SPR Biacore, pH 6.0
Target sequence in this assay (P13599 23-298 limits assumed, form in doubt, chain 1 of 2): as the sequence (P13599 23-298, form in doubt, chain 1 of 2) above
Target sequence in this assay (P07151 21-119 limits assumed, form in doubt, chain 2 of 2, further chain): as the sequence (P07151 21-119, form in doubt, chain 2 of 2, further chain) above

rFcRn (rat) [9] = target: rFcRn (rat) (UniProt P13599); experiment: SPR Biacore, pH 7.4
Target sequence in this assay (P13599 23-298 limits assumed, form in doubt, chain 1 of 2): as the sequence (P13599 23-298, form in doubt, chain 1 of 2) above
Target sequence in this assay (P07151 21-119 limits assumed, form in doubt, chain 2 of 2, further chain): as the sequence (P07151 21-119, form in doubt, chain 2 of 2, further chain) above

[10] = target: biotinylated hFcRn (human) (UniProt P55899); experiment: SPR Biacore, pH 6.0
Target sequence in this assay (P55899 24-297 limits assumed, form in doubt, chain 1 of 2): as the sequence (P55899 24-297, form in doubt, chain 1 of 2) above
Target sequence in this assay (P61769 21-119 limits assumed, form in doubt, chain 2 of 2, further chain): as the sequence (P61769 21-119, form in doubt, chain 2 of 2, further chain) above

[11] = target: biotinylated hFcRn (human) (UniProt P55899); experiment: SPR Biacore, pH 6.0; remark: listed apart in the source
Target sequence in this assay (P55899 24-297 limits assumed, form in doubt, chain 1 of 2): as the sequence (P55899 24-297, form in doubt, chain 1 of 2) above
Target sequence in this assay (P61769 21-119 limits assumed, form in doubt, chain 2 of 2, further chain): as the sequence (P61769 21-119, form in doubt, chain 2 of 2, further chain) above

[12] = target: biotinylated hFcRn (human) (UniProt P55899); experiment: SPR Biacore, pH 7.4
Target sequence in this assay (P55899 24-297 limits assumed, form in doubt, chain 1 of 2): as the sequence (P55899 24-297, form in doubt, chain 1 of 2) above
Target sequence in this assay (P61769 21-119 limits assumed, form in doubt, chain 2 of 2, further chain): as the sequence (P61769 21-119, form in doubt, chain 2 of 2, further chain) above

[13] = target: biotinylated human FcRn (hFcRn; p51 subunit residues 24-297 with C-terminal Avi-tag, β2-m residues 21-119) (human) (UniProt P55899); experiment: Biacore SPR, Biotin CAPture, pH 7.4, 1000 nM antibody, steady state
biotinylated human FcRn (hFcRn; p51 subunit residues 24-297 with C-terminal Avi-tag, β2-m residues 21-119) (human), sequence (P55899 24-297, form in doubt, chain 1 of 2): as the sequence (P55899 24-297, form in doubt, chain 1 of 2) above
biotinylated human FcRn (hFcRn; p51 subunit residues 24-297 with C-terminal Avi-tag, β2-m residues 21-119) (human), sequence (P61769 21-119, form in doubt, chain 2 of 2, further chain): as the sequence (P61769 21-119, form in doubt, chain 2 of 2, further chain) above

[14] = target: biotinylated human FcRn (hFcRn; p51 subunit residues 24-297 with C-terminal Avi-tag, β2-m residues 21-119) (human) (UniProt P55899); experiment: Biacore SPR, pH 6.0, apparent affinity
[15] = target: biotinylated human FcRn (hFcRn; p51 subunit residues 24-297 with C-terminal Avi-tag, β2-m residues 21-119) (human) (UniProt P55899); experiment: Biacore SPR, pH 7.4, steady state, 1000 nM antibody

Human CD16a (FcγRIIIa) V158 with C-terminal HPC4 tag (human), sequence (P08637 17-208 F176V): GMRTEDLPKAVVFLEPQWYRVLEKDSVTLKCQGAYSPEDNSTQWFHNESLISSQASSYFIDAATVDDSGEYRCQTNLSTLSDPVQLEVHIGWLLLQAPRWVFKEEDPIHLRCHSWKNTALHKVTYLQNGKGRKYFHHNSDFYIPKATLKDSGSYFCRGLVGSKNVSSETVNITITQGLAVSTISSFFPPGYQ

Row | Substance | Kd (rFcRn (rat) [1]) [nM] | Steady State RU (rFcRn (rat) [6]) [RU] | Steady State RU [7] [RU] | Kd (rFcRn (rat) [8]) [nM] | Steady State RU (rFcRn (rat) [9]) [RU] | Kd [11] [nM] | Steady State RU [12] [RU] | koff (rFcRn (rat) [8]) [s⁻¹] | kon (rFcRn (rat) [8]) [M⁻¹ s⁻¹] | koff [11] [s⁻¹] | kon [11] [M⁻¹ s⁻¹] | other results
1 | mAb1 AAA (T307A/E380A/N434A) (antibody) | 77 | – | – | – | – | – | – | – | – | – | – | koff (rFcRn (rat) [1]): 0.0117 s⁻¹; kon (rFcRn (rat) [1]): 157000 M⁻¹ s⁻¹; Kd [2]: 1780 nM; koff [2]: 0.14 s⁻¹; kon [2]: 84000 M⁻¹ s⁻¹; Kd [3]: 450 nM; Steady State RU (pH 7.4) (rFcRn (rat) [4]): 23.6 RU; Steady State RU (pH 7.4) [5]: 13.9 RU
2 | mAb1 E380C (antibody) | 6310 | 27.7 | 5.7 | 6310 | – | – | – | – | – | – | – | –
3 | mAb1 K288D (antibody) | 149 | 21.9 | 3.8 | 149 | – | – | – | – | – | – | – | –
4 | mAb1 K288N (antibody) | 190 | 20.4 | – | 190 | – | – | – | – | – | – | – | –
5 | mAb1 LS (M428L/N434S) (antibody) | 74 | – | – | – | – | – | – | – | – | – | – | koff (rFcRn (rat) [1]): 0.0066 s⁻¹; kon (rFcRn (rat) [1]): 91000 M⁻¹ s⁻¹; Kd [2]: 272 nM; koff [2]: 0.05 s⁻¹; kon [2]: 193000 M⁻¹ s⁻¹; Kd [3]: 369 nM; Steady State RU (pH 7.4) (rFcRn (rat) [4]): 24.8 RU; Steady State RU (pH 7.4) [5]: 18.3 RU
6 | mAb1 M252Y (antibody) | 25 | 57.7 | – | 25 | 50.5 | 3100 | – | – | – | – | – | Kd [2]: 3100 nM; Kd [10]: > 3000 nM
7 | mAb1 M252Y/T256E (antibody) | – | – | – | 8.43 | 55.1 | 128 | 9.8 | 0.00273 | 324000 | 0.0757 | 592000 | –
8 | mAb1 M252Y/T307Q (antibody) | – | – | – | 4.11 | 49.2 | 278 | 10.6 | 0.00105 | 255000 | 0.096 | 345000 | –
9 | mAb1 M252Y/T307W (antibody) | – | – | – | 5.21 | 66.1 | 118 | 15.9 | 0.00109 | 208000 | 0.057 | 483000 | –
10 | mAb1 N434P (antibody) | 194 | 4.3 | 3.5 | 194 | – | – | – | – | – | – | – | –
11 | mAb1 T256D (antibody) | 86 | 30.4 | – | 86 | 23.2 | 6700 | – | – | – | – | – | Kd [2]: 6700 nM; Kd [10]: > 3000 nM
12 | mAb1 T256D/N434F (antibody) | – | – | – | 1.78 | 63 | 29.9 | 29.2 | 0.00039 | 218000 | 0.029 | 968000 | –
13 | mAb1 T256D/N434Y (antibody) | – | – | – | 0.6 | 71.6 | 15.6 | 37.1 | 0.00025 | 413000 | 0.0285 | 1.83e+06 | –
14 | mAb1 T256E (antibody) | 113 | 23 | 4.8 | 113 | 17 | – | 4.5 | – | – | – | – | Kd [10]: > 3000 nM
15 | mAb1 T256E/N434F (antibody) | – | – | – | 7.53 | 59 | 78.2 | 23.3 | 0.00081 | 108000 | 0.0419 | 536000 | –
16 | mAb1 T256E/N434Y (antibody) | – | – | – | 7.71 | 62.2 | 62.6 | 26.8 | 0.00098 | 127000 | 0.0393 | 628000 | –

Row | Substance | Kd (rFcRn (rat) [1]) [nM] | Steady State RU (rFcRn (rat) [6]) [RU] | Steady State RU [7] [RU] | Kd (rFcRn (rat) [8]) [nM] | Steady State RU (rFcRn (rat) [9]) [RU] | Kd [11] [nM] | Steady State RU [12] [RU] | koff (rFcRn (rat) [8]) [s⁻¹] | kon (rFcRn (rat) [8]) [M⁻¹ s⁻¹] | koff [11] [s⁻¹] | kon [11] [M⁻¹ s⁻¹] | other results
17 | mAb1 T307A (antibody) | 132 | 23.1 | 5.2 | 132 | – | – | – | – | – | – | – | –
18 | mAb1 T307F (antibody) | 131 | 21.9 | 4.9 | 131 | – | – | – | – | – | – | – | –
19 | mAb1 T307M (antibody) | 279 | 15.3 | 4.4 | 279 | – | – | – | – | – | – | – | –
20 | mAb1 T307Q (antibody) | 58 | 24.3 | 6.4 | 58 | 31.3 | 5720 | 6.6 | – | – | – | – | Kd [2]: 5720 nM; Kd [10]: > 3000 nM
21 | mAb1 T307Q/N434F (antibody) | – | – | – | 3.89 | 62.5 | 42.9 | 34.2 | 0.0004 | 104000 | 0.0246 | 574000 | –
22 | mAb1 T307Q/N434Y (antibody) | – | – | – | 4.11 | 63 | 32.4 | 38.4 | 0.00048 | 116000 | 0.0202 | 622000 | –
23 | mAb1 T307W (antibody) | 111 | 19.2 | – | 111 | 21.9 | 8740 | – | – | – | – | – | Kd [2]: 8740 nM; Kd [10]: > 3000 nM
24 | mAb1 T307W/N434F (antibody) | – | – | – | 2.7 | 65.1 | 38.2 | 30.5 | 0.00057 | – | – | – | –
25 | mAb1 T307W/N434Y (antibody) | – | – | – | 0.62 | 69.6 | 21.5 | 37.2 | 0.0003 | 480000 | 0.0317 | 1.48e+06 | –
26 | mAb1 Y436H (antibody) | 131 | 16.3 | 3.6 | 131 | – | – | – | – | – | – | – | –
27 | mAb1 Y436N (antibody) | 233 | 17.4 | 3.6 | 233 | – | – | – | – | – | – | – | –
28 | mAb1 Y436W (antibody) | 1140 | 10.3 | 3.7 | 1140 | – | – | – | – | – | – | – | –
29 | mAb1 YDTN (M252Y/T256D) (antibody) | 5.9 | – | – | – | – | – | – | – | – | – | – | Kd [3]: 1060 nM; Steady State RU (pH 7.4) (rFcRn (rat) [4]): 56 RU; Steady State RU (pH 7.4) [5]: 9.7 RU
30 | mAb1 YDTY variant (M252Y/T256D/N434Y) (antibody) | – | – | – | – | – | – | – | – | – | – | – | pH 7.4 RU [13]: 69.7 RU; Ka [14]: 9.01e+07 M⁻¹; Steady State Binding, pH 7.4 (RU) [15]: 65.4 RU
31 | mAb1 YDWF variant (M252Y/T256D/T307W/N434F) (antibody) | – | – | – | – | – | – | – | – | – | – | – | pH 7.4 RU [13]: 75.7 RU; Ka [14]: 1.66e+08 M⁻¹; Steady State Binding, pH 7.4 (RU) [15]: 71.8 RU
32 | mAb1 YTWY variant (M252Y/T307W/N434Y) (antibody) | – | – | – | – | – | – | – | – | – | – | – | pH 7.4 RU [13]: 77.1 RU; Ka [14]: 1.06e+08 M⁻¹; Steady State Binding, pH 7.4 (RU) [15]: 75.1 RU
